According to publication PMC8219681, “Inhibition of MRN activity by a telomere protein motif” (Nature Communications, 2021):

B1: Rad50 (S. cerevisiae, FLAG-tagged at the C terminus) [S. cerevisiae] / MBP-Rif2 (S. cerevisiae Rif2, wild type) [S. cerevisiae] (parent complex)
chain 1: MSAIYKLSIQGIRSFDSNDRETIEFGKPLTLIVGMNGSGKTTIIECLKYATTGDLPPNSKGGVFIHDPKITGEKDIRAQVKLAFTSANGLNMIVTRNIQLLMKKTTTTFKTLEGQLVAINNSGDRSTLSTRSLELDAQVPLYLGVPKAILEYVIFCHQEDSLWPLSEPSNLKKKFDEIFQAMKFTKALDNLKSIKKDMSVDIKLLKQSVEHLKLDKDRSKAMKLNIHQLQTKIDQYNEEVSEIESQLNEITEKSDKLFKSNQDFQKILSKVENLKNTKLSISDQVKRLSNSIDILDLSKPDLQNLLANFSKVLMDKNNQLRDLETDISSLKDRQSSLQSLSNSLIRRQGELEAGKETYEKNRNHLSSLKEAFQHKFQGLSNIENSDMAQVNHEMSQFKAFISQDLTDTIDQFAKDIQLKETNLSDLIKSITVDSQNLEYNKKDRSKLIHDSEELAEKLKSFKSLSTQDSLNHELENLKTYKEKLQSWESENIIPKLNQKIEEKNNEMIILENQIEKFQDRIMKTNQQADLYAKLGLIKKSINTKLDELQKITEKLQNDSRIRQVFPLTQEFQRADLEMDFQKLFINMQKNIAINNKKMHELDRRYTNALYNLNTIEKDLQDNQKSKEKVIQLLSENLPEDCTIDEYNDVLEETELSYKTALENLKMHQTTLEFNRKALEIAERDSCCYLCSRKFENESFKSKLLQELKTKTDANFEKTLKDTVQNEKEYLHSLRLLEKHIITLNSINEKIDNSQKCLEKAKEETKTSKSKLDELEVDSTKLKDEKELAESEIRPLIEKFTYLEKELKDLENSSKTISEELSIYNTSEDGIQTVDELRDQQRKMNDSLRELRKTISDLQMEKDEKVRENSRMINLIKEKELTVSEIESSLTQKQNIDDSIRSKRENINDIDSRVKELEARIISLKNKKDEAQSVLDKVKNERDIQVRNKQKTVADINRLIDRFQTIYNEVVDFEAKGFDELQTTIKELELNKAQMLELKEQLDLKSNEVNEEKRKLADSNNEEKNLKQNLELIELKSQLQHIESEISRLDVQNAEAERDKYQEESLRLRTRFEKLSSENAGKLGEMKQLQNQIDSLTHQLRTDYKDIEKNYHKEWVELQTRSFVTDDIDVYSKALDSAIMKYHGLKMQDINRIIDELWKRTYSGTDIDTIKIRSDEVSSTVKGKSYNYRVVMYKQDVELDMRGRCSAGQKVLASIIIRLALSETFGANCGVIALDEPTTNLDEENIESLAKSLHNIINMRRHQKNFQLIVITHDEKFLGHMNAAAFTDHFFKVKRDDRQKSQIEWVDINRVTY
chain 2: MEHVDSDFAPIRRSKKVVDSDKIVKAISDDLEQKNFTVLRKLNLVPIKKSVSSPKVCKPSPVKERVDHVFYQKFKSMALQELGTNYLSISYVPSLSKFLSKNLRSMKNCIVFFDKVEHIHQYAGIDRAVSETLSLVDINVVIIEMNDYLMKEGIQSSKSKECIESMGQASYSGQLDFEASEKPSNHTSDLMMMVMRKINNDESIDHIVYFKFEQLDKLSTSTIIEPSKLTEFINVLSVLEKSNNIAFKVLIYSNNVSISSLLSTSLKKKLNTKYTVFEMPILTCAQEQEYLKKMIKFTFDSGSKLLQSYNSLVTCQLNNKESNLAIFFEFLKVFPHPFTYLFNAYTEIIVQSRTFDELLDKIRNRLTIKNYPHSAYNFKKNQRLPLKLTRKVHDR

Variants of: B1
Assay: pull-down (amylose-immobilized MBP-Rif2 bait, Western blot with anti-Rad50 antibody, quantified); three independent blots; mean with SEM; parent: 100; read off a plot

Variant	percent of parent [Relative value]
chain 1 K81I	~16
